This note sets out measurements from patent US11491212.

A word on the KM: it is the substrate concentration at which the rate is half of its maximum. Usually kcat/KM stands for the turnover number divided by the Michaelis constant. A word on the kcat: it is the maximal rate divided by the concentration of active sites.

Data set [1] concerns the target Factor X (FX), active site titrated and DFP/EGR-cmk treated zymogen, P00742.
In data set [2] the target is Factor VIIIa (FVIIIa), P00451.
Factor VIIIa (FVIIIa), P00451, sequence (P00451 other isoform, or with tags, fused parts or gaps): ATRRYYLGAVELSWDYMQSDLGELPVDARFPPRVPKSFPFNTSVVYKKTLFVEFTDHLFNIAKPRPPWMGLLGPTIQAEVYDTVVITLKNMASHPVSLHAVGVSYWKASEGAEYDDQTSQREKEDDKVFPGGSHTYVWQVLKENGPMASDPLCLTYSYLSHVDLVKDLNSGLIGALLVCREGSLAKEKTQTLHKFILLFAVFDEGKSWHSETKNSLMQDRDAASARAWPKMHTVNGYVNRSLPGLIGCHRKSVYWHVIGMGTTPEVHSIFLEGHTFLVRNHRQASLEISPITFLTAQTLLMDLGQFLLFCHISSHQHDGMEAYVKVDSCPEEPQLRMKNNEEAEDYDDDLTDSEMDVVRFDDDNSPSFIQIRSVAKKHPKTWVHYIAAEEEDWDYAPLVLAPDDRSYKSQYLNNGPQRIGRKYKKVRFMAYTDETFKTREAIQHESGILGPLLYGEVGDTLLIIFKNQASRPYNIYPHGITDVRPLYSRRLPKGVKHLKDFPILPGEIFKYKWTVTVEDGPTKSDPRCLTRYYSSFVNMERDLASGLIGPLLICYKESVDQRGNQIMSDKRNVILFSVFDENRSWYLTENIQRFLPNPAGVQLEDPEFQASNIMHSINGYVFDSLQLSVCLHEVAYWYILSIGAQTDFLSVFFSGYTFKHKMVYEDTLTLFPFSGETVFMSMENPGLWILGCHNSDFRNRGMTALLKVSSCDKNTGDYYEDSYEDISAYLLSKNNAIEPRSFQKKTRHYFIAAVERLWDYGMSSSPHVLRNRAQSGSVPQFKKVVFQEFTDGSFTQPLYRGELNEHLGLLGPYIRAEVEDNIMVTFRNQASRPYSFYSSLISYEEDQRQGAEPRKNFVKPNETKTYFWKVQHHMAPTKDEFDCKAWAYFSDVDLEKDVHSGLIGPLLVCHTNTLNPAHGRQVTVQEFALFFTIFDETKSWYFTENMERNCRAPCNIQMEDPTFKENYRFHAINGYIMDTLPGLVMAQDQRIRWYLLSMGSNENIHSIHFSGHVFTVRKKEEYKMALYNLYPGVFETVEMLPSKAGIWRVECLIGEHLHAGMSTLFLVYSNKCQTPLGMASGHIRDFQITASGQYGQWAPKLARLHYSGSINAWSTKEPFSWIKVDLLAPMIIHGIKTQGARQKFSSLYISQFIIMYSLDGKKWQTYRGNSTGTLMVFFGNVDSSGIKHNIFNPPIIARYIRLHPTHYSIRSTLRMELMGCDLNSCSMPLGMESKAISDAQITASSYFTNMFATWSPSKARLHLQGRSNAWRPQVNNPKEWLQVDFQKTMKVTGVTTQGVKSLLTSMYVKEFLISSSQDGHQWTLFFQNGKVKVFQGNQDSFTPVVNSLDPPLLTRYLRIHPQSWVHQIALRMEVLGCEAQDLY

Factor X (FX), active site titrated and DFP/EGR-cmk treated zymogen, P00742, sequence (P00742 whole entry, looked up): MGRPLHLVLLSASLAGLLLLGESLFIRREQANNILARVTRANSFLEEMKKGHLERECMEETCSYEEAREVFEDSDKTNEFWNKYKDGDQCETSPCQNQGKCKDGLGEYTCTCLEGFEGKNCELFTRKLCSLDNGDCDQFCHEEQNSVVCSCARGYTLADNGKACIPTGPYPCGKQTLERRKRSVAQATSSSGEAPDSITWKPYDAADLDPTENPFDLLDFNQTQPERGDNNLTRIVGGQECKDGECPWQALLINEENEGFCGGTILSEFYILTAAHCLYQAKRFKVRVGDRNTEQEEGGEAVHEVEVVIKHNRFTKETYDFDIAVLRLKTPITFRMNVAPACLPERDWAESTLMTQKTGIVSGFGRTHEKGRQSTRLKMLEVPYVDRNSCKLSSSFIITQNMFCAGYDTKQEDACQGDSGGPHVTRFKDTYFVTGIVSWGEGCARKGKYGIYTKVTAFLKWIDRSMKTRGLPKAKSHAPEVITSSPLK
Factor X, P00742, sequence (P00742 whole entry, looked up): as above
Factor X (FX), P00742, sequence (P00742 whole entry, looked up): as above

B1: FIXa-R338E/T343R/R403E/E410N (protein)
chain 1: not shown
chain 2: not shown
Regarding B1, the KM with Factor X (FX), P00742 worked out at 0.0347 µM. Further, in the data set with Factor X, P00742, the kcat/KM was determined as 3e+08 M⁻¹ s⁻¹.

B2: FIXa-R318Y/R338E/T343R/E410N (protein)
chain 1: not shown
chain 2: not shown
As for B2, the KM in the data set with Factor X (FX), P00742 turned out to be 0.0164 µM. Moreover, the “catalytic activity (kcat/KM for activation of FX)” value (from here on “catalytic activity”) in data set [1] was “displayed some of the greatest increases in catalytic activity”. In the data set with Factor X, P00742, the kcat/KM stood at 3.4e+08 M⁻¹ s⁻¹.

B3: FIXa-K247N/N249S/R338E/T343R/R403E (protein)
chain 1: not shown
chain 2: not shown
As for B3, the kcat in the data set with Factor X (FX), P00742 was determined as 14.6 s⁻¹. The “catalytic activity” value in data set [1] is listed as “improved activity when combined with other mutations”. In addition, the KM with Factor X, P00742 was found to be 0.0263 µM.

B4: FIXa-Y155F/R318Y/R338E/T343R/E410N (protein)
chain 1: not shown
chain 2: not shown
Consider B4, for which the KM with Factor X (FX), P00742 was 0.0256 µM. Further, the kcat/KM with Factor X, P00742 is 3.7e+08 M⁻¹ s⁻¹.

B5: FIXa-Y155F/R318Y/R338E/T343R/R403E (protein)
chain 1: not shown
chain 2: not shown
Take B5: the KM with Factor X (FX), P00742 is 0.034 µM. For the same protein, in the data set with Factor X, P00742, the kcat/KM is 2.6e+08 M⁻¹ s⁻¹.

B6: FIXa-R318Y/R338E/T343R (activated CB 2679d, FIX of SEQ ID NO:394) (protein)
chain 1: not shown
chain 2: not shown
In the case of B6, the “catalytic efficiency for the activation of FX” value in data set [1] was “approximately 3-fold enhanced catalytic efficiency for the activation of FX”.

B7: FIX of SEQ ID NO:394, with the replacements R318Y/R338E/T343R (activated form, FIXa) (protein)
chain 1: not shown
chain 2: not shown
In data set [2], B7 yielded an FIX activity (mean) at 5 ng/mL FVIIIa, Test 1 of 278; an FIX activity (mean) at 10 ng/mL FVIIIa, Test 2 of 479; an FIX activity (mean) at 15 ng/mL FVIIIa, Test 3 of 622; a Fold increase after FVIIIa addition (5 ng/mL), Test 1 of 225 fold. For the same protein, in data set [2], the Fold increase after FVIIIa addition (10 ng/mL), Test 2 turned out to be 384 fold; the Fold increase after FVIIIa addition (15 ng/mL), Test 3 was 486 fold; the Ratio (CB2679d vs BeneFIX) of FIX activity at 5 ng/mL FVIIIa was 2; the Ratio (CB2679d vs BeneFIX) of FIX activity at 10 ng/mL FVIIIa stood at 2. Besides, the Ratio (CB2679d vs BeneFIX) of FIX activity at 15 ng/mL FVIIIa in data set [2] worked out at 2. In the data set with Factor X (FX), P00742, the Cofactor-Dependent Indirect kcat/KM (M-1s-1), FX activation is 1.2e+08 M⁻¹ s⁻¹; the Fold Increase over BeneFIX FIX (kcat/KM, FX activation) is 2.8 fold; the Pro-coagulant Activity, Fold Change (in vitro) is 2.8 fold.

B8: FIXa-R318Y/R338E/E410N (protein)
chain 1: not shown
chain 2: not shown
As for B8, the “catalytic activity” value in data set [1] was “displayed some of the greatest increases in catalytic activity”.

B9: FIXa-Y155F/R318Y/T343R/R403E/E410N (protein)
chain 1: not shown
chain 2: not shown
On to B9, for which, in the data set with Factor X (FX), P00742, the KM turned out to be 0.034 µM. Moreover, the kcat/KM in the data set with Factor X, P00742 is 2.6e+08 M⁻¹ s⁻¹.

B10: FIXa-K228N/K247N/N249S (protein)
chain 1: not shown
chain 2: not shown
On to B10, for which, in the data set with Factor X (FX), P00742, the “% of WT kcat/KM (against Catalyst Biosciences WT FIXa)” value turned out to be 83% and the kcat/KM for activation of FX by FIXa in the Xase complex (FVIIIa, PC/PS vesicles, Ca2+), fluorogenic Spectrafluor FXa read-out is 3.8e+07 M⁻¹ s⁻¹. Also, the “catalytic activity” value in data set [1] was “demonstrated close to wild-type activity”.

B11: FIXa-K247N/N249S/R318Y/R338E/T343R/R403E/E410N (protein)
chain 1: not shown
chain 2: not shown
With B11, the “catalytic activity” value in data set [1] is on record as “improved activity when combined with other mutations”. In the data set with Factor X, P00742, the kcat/KM came to 3.8e+08 M⁻¹ s⁻¹.

B12: FIXa-R318Y/R338E/T343R/R403E (protein)
chain 1: not shown
chain 2: not shown
As for B12, the KM with Factor X (FX), P00742 turned out to be 0.0443 µM. Besides, the kcat/KM in the data set with Factor X, P00742 amounted to 1.6e+08 M⁻¹ s⁻¹.
